The values below are quoted from earlier work in PMC10054347.

Series [1] has as its target T1, Epithelial cell adhesion molecule (EpCAM) (Homo sapiens (Human)) (UniProt P16422).
T1 sequence: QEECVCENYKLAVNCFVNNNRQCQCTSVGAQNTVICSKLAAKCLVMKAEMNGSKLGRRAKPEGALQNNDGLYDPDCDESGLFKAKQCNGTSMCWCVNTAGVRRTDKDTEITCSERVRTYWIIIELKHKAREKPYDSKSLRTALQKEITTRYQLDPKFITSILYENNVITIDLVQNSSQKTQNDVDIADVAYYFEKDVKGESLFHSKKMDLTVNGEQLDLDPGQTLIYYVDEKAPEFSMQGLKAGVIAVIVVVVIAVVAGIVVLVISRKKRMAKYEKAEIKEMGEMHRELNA
The experiment in a line: flow. Conditions: DPBS, 4.5 g/L glucose, 5 mM MgCl2, 10% FBS, 37 C; HepG2 cells overexpressing EpCAM.

Series [2] concerns the target PD-L1 (human) (Homo sapiens (Human)) (UniProt Q9NZQ7). The experiment in a line: flow. The conditions noted are these: MDA-MB-231 PD-L1 over-expressing cells, 4 C, 1 h.
In series [3] the target is Double homeobox protein 4 (human), full length (Homo sapiens (Human)) (UniProt Q9UBX2). The series can be described thus: FP. The conditions noted are these: hairpin with CCC bulge.
Chain of Double homeobox protein 4 (human), full length (Homo sapiens (Human)) (Q9UBX2 whole entry): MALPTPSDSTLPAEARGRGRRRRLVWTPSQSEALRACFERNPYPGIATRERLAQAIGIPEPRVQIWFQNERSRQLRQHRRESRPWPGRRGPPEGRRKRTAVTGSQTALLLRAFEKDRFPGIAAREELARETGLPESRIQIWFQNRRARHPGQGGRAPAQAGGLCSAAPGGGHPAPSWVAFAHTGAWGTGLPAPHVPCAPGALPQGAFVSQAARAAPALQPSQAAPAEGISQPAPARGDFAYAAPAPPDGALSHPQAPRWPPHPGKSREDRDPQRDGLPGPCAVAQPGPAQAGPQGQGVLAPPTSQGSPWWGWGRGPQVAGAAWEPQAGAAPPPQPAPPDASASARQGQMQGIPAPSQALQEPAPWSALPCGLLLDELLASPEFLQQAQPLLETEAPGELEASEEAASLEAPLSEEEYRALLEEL
The target in series [4] is MMP14 (MT1-MMP) (Homo sapiens (Human)) (UniProt P50281). The experiment in a line: flow. Conditions: 293T-MMP14 cells; PBS, 10% FCS, 0.02% NaN3, 37 C, 30 min.
Series [5] concerns the target T2, Aspartyl/asparaginyl beta-hydroxylase, human (Homo sapiens (Human)) (UniProt Q12797).
T2 sequence: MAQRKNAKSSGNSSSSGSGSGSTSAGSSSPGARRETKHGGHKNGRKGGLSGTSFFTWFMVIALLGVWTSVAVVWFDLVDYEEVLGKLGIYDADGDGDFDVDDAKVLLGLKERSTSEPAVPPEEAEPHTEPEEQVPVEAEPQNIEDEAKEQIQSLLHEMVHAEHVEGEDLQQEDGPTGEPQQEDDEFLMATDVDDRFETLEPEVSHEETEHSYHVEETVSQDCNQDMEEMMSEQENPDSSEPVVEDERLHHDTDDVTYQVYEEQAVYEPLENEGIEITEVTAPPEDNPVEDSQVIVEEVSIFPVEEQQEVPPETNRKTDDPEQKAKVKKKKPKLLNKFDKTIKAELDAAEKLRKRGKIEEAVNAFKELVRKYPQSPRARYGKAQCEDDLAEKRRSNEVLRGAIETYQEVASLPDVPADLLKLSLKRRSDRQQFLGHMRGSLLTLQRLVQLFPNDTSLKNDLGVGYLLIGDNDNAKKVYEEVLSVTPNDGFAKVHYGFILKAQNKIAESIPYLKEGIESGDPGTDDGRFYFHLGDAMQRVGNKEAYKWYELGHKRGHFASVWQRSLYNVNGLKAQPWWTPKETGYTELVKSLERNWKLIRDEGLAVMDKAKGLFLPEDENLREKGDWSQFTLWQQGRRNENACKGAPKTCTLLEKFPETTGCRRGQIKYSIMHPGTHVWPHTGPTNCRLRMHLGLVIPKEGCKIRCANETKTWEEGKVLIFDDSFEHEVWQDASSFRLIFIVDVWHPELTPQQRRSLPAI
The experiment in a line: flow. The conditions noted are these: HeLa-ASPH cells; DPBS, 5 mM MgCl2, glucose, BSA, tRNA.

Series [6] has as its target alpha-thrombin (light + heavy chain) (Homo sapiens (Human)) (UniProt P00734+P00734). The series can be described thus: SPR. The conditions noted are these: 2'-F pyrimidines; 10 mM HEPES-KOH pH 7.5, 100 mM KCl; protein amine-coupled on CM5, BSA reference.
In series [7] the target is T3, SIRT1, human (Homo sapiens (Human)) (UniProt Q96EB6).
T3 sequence: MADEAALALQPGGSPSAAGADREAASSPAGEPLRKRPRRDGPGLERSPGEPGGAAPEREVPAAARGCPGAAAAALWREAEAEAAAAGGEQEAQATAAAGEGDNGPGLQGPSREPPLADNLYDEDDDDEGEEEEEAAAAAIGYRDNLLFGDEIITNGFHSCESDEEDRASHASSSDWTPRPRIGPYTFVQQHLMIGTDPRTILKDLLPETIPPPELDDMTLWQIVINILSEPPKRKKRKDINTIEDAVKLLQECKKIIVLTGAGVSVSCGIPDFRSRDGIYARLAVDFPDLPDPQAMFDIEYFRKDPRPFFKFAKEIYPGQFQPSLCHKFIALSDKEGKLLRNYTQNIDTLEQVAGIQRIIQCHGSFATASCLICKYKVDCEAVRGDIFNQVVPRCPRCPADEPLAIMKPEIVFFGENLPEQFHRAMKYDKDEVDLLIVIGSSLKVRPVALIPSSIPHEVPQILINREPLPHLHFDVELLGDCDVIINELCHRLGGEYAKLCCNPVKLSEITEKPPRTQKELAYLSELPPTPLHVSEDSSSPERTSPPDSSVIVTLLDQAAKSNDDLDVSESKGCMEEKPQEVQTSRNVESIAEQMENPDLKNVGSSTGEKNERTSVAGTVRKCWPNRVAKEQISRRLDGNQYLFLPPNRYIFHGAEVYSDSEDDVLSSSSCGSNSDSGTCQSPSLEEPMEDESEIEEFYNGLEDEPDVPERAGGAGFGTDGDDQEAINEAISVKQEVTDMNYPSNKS
The experiment in a line: SPR. Conditions: circular (ligated 40-mer, ESI Fig 4); 100 mM NaCl, 5 mM MgCl2, pH 7.4, 25 C.

The target of series [8] is Lactoferrin (bovine milk) (Bos taurus (Bovine)) (UniProt P24627). The experiment in a line: SPR.
Chain of Lactoferrin (bovine milk) (Bos taurus (Bovine)) (P24627 20-708): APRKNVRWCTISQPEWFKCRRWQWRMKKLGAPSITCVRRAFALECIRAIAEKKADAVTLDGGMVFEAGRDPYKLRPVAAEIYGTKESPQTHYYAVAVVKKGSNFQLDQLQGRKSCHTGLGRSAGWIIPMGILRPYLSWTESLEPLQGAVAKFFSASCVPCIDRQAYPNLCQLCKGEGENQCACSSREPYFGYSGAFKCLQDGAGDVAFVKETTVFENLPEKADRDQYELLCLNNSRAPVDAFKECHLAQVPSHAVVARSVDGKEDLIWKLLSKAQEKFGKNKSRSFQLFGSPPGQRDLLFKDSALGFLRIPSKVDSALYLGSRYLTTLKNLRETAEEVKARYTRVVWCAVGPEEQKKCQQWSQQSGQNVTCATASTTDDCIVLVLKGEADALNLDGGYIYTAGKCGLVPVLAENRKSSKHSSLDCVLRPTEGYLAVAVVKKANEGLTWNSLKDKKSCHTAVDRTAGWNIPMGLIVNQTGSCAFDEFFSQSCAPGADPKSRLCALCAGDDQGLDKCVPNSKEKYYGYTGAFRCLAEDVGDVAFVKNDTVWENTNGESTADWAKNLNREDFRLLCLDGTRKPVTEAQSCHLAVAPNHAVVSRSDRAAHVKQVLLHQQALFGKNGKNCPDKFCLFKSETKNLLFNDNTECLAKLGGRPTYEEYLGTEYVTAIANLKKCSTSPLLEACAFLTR
In series [9] the target is T4, FGFR3c ectodomain, mouse (Mus musculus (Mouse)) (UniProt Q61851).
T4 sequence: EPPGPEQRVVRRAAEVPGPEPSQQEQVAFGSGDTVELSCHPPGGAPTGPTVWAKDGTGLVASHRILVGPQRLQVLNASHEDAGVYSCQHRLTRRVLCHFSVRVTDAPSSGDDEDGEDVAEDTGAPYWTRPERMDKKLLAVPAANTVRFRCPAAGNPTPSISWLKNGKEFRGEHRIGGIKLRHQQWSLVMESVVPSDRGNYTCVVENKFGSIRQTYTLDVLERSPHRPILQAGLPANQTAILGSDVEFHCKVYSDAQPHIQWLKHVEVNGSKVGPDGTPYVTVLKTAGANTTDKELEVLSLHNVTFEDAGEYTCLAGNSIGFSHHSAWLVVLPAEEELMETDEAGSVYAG
The series can be described thus: flow. Conditions: 2'-F pyrimidines; 3'-inverted dT (not in strands); 5'-thiol; protein on protein G beads; DPBS / FACS buffer, 1 h, 37 C; apparent Kd.

The target of series [10] is T5, FGFR3b ectodomain, human (Homo sapiens (Human)) (UniProt P22607).
T5 sequence: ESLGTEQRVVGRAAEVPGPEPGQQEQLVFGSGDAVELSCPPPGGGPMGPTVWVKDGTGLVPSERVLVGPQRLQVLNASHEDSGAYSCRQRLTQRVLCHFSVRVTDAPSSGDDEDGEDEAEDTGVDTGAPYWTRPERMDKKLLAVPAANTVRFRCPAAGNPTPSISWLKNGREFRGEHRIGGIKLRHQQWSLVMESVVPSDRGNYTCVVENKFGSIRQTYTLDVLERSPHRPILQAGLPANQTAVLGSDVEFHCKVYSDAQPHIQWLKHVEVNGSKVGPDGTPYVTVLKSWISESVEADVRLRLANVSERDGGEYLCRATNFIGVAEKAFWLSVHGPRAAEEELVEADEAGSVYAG
The series can be described thus: flow. Conditions: 2'-F pyrimidines; 3'-inverted dT (not in strands); 5'-thiol; protein on protein G beads; DPBS / FACS buffer, 1 h, 37 C; apparent Kd.

Series [11] concerns the target T6, C5a anaphylatoxin (human) (Homo sapiens (Human)) (UniProt P01031).
T6 sequence: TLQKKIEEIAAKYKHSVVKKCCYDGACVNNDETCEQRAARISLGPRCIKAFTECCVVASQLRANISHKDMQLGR
The experiment in a line: SPR. Conditions: all L-RNA (Spiegelmer); 5' 40 kDa branched PEG via aminohexyl linker.

Series [12] concerns the target T7, C5a anaphylatoxin (mouse) (Mus musculus (Mouse)) (UniProt P06684).
T7 sequence: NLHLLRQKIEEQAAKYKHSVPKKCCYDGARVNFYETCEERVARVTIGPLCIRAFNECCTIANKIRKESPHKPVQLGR
The series can be described thus: SPR. The conditions noted are these: all L-RNA (Spiegelmer); 5' 40 kDa branched PEG via aminohexyl linker.

Series [13] has as its target CD63 large extracellular loop (Homo sapiens (Human)) (UniProt P08962). The experiment in a line: ELONA. Conditions: binding buffer, 37 C, 1 h; protein adsorbed on plate.
Series [14] deals with T8, NELF-E (Drosophila) (Drosophila melanogaster (Fruit fly)) (UniProt P92204).
T8 sequence: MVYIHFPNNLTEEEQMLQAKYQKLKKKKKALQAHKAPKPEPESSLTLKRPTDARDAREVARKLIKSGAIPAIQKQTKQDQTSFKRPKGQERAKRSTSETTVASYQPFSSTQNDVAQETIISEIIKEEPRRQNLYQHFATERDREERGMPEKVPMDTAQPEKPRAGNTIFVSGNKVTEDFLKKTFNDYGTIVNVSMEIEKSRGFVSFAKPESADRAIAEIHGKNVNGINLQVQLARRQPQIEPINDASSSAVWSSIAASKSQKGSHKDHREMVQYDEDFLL
The conditions noted are these: HiTS-RAP; 10 mM HEPES pH 7.5, 100 mM NaCl, 25 mM KCl, 5 mM MgCl2, 0.02% Tween-20, RT.

The target of series [15] is T9, RNA-binding protein Hfq (YmaH) K2E (Bacillus subtilis (strain 168)) (UniProt O31796).
T9 sequence: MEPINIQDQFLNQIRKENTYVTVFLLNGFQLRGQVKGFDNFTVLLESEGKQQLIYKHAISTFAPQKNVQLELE
The experiment in a line: EMSA. (In general: Mobility shift assays separate free from complexed probe on a gel.)

The target of series [16] is PDGFR-alpha ectodomain (human) (Homo sapiens (Human)) (UniProt P16234). The series can be described thus: SPR. Conditions: 2'-F pyrimidines; 30 mM Tris-HCl pH 7.5, 150 mM NaCl, 5 mM MgCl2; aptamer on SA chip.
Chain of PDGFR-alpha ectodomain (human) (Homo sapiens (Human)) (P16234 24-524): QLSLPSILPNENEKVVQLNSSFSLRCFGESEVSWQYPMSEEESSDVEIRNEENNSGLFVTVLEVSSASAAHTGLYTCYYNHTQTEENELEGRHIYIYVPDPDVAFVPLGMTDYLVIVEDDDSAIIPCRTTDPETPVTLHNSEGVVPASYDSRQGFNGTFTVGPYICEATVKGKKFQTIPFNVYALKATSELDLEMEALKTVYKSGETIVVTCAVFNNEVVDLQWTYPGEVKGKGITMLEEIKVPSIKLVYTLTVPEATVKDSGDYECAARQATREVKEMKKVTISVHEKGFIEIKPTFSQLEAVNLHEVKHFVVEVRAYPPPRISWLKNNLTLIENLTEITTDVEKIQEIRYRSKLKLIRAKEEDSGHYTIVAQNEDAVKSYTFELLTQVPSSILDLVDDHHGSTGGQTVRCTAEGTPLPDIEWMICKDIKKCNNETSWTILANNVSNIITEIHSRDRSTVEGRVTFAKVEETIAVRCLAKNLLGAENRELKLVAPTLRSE
The target in series [17] is Integrin alpha5 beta1 ectodomain (Homo sapiens (Human)) (UniProt P08648+P05556). The experiment in a line: SPR. The conditions noted are these: 2'-F pyrimidines; PBS 10 mM, 150 mM NaCl, 1 mM MgCl2, 0.005% P20, 25 C.
Chain of Integrin alpha5 beta1 ectodomain (Homo sapiens (Human)) (P08648 42-995, chain 1 of 2): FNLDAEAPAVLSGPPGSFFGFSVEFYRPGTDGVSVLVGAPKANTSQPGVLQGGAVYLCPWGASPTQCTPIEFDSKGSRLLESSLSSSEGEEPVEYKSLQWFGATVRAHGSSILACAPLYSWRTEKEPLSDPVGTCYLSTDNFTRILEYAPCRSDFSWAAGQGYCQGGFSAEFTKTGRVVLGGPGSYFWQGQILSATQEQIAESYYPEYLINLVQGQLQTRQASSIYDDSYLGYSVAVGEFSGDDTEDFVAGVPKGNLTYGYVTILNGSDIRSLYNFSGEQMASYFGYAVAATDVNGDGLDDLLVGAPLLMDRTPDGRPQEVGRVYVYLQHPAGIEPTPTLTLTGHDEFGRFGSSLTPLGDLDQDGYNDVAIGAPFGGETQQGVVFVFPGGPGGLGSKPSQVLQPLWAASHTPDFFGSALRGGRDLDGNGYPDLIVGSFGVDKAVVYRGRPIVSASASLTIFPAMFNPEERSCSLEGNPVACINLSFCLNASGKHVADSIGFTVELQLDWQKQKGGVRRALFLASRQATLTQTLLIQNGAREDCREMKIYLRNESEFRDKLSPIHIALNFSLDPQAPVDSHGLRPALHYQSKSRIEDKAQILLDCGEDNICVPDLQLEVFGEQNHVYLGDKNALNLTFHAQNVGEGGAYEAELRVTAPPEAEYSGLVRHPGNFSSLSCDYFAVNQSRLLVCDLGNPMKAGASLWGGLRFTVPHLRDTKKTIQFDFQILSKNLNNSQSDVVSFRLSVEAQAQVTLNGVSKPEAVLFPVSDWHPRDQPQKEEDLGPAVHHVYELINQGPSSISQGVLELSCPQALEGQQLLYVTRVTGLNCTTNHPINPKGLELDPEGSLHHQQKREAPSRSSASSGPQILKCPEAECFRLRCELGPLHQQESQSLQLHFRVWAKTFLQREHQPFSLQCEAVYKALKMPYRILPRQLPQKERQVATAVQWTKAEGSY
Chain of Integrin alpha5 beta1 ectodomain (Homo sapiens (Human)) (P05556 21-728, chain 2 of 2): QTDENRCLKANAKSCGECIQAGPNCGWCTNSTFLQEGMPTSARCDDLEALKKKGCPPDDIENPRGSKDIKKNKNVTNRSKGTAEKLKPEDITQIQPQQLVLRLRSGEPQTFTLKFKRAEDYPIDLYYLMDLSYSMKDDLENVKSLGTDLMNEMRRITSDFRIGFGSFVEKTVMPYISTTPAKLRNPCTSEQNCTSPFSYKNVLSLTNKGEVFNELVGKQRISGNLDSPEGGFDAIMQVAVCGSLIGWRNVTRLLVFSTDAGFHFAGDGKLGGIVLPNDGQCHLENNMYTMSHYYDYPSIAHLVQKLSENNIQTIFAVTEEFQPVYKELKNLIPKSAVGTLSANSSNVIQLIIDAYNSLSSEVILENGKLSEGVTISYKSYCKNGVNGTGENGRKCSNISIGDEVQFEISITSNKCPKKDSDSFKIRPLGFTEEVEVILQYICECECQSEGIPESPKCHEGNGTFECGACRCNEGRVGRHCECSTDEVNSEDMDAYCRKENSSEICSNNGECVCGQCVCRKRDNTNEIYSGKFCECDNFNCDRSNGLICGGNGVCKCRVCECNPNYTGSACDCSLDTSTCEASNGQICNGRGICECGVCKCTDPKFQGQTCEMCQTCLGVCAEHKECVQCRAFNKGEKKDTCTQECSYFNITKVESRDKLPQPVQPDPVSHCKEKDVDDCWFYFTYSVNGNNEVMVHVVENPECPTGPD
Series [18] concerns the target TGF-beta1 (mature) (Homo sapiens (Human)) (UniProt P01137). The series can be described thus: SPR. The conditions noted are these: 2'-F pyrimidines; 10 mM HEPES-KOH pH 7.5, 100 mM KCl; protein amine-coupled on CM5, BSA reference.

Chain of PD-L1 (human) (Homo sapiens (Human)) (Q9NZQ7 19-290): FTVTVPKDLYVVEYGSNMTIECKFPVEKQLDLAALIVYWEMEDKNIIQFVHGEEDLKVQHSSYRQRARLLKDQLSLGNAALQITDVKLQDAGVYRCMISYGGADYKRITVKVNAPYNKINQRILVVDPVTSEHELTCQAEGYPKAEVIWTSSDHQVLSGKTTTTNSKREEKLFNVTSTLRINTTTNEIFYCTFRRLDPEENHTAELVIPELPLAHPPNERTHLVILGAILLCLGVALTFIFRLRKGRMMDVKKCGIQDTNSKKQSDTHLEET
Chain of CD63 large extracellular loop (Homo sapiens (Human)) (P08962 103-203): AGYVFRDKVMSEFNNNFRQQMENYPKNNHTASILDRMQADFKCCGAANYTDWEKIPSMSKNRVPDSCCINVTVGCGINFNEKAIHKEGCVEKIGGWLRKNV
Chain of TGF-beta1 (mature) (Homo sapiens (Human)) (P01137 279-390): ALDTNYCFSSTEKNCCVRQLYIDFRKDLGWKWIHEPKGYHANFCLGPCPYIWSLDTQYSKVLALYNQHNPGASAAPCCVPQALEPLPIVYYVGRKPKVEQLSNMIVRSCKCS

As to “AACAGAGGGACAAACGGGGGAAGATTTGACGTCGACGACA [EP166]”, in series [1], the Kd was 5480 nM.

As for “ACCGACCGTGCTGGACTCATCTCGCTTTTTTCACGGTCCACACTACTATGAGCGAGCCTGGCG [XQ-P3]”, the Kd in [2] was 15.4 nM.

“AGCTAACTTAATCAACCGCAGGTTGATTAACCCGTTAGC [DUX4_CTT_R7CCC]”: in series [3], the Kd was 20 nM.

With “AGGGCCCGACGTGACGGCACGTCGGATATCTCATGCGTGT [M17]”, in series [4], the Kd is 4.98 nM.

For “ATACCAGCTTATTCAATTCGGGACAAGACAACGAACGAACAGGAAGAGAACCGGAATGCAGACGTCAGGGAGATAGTAAGTGCAATCT [AP-Cell 1]”, the Kd in series [5] was 47.5 nM.

As for “CCUUUGGUUCGGAUAAUUAUUAAGUAUUGUCUUCAUUCA [Tbn#3]”, the Kd in series [6] was 1.4 nM.

In the case of “CGAGTGGGTTACATCGAAACTGGATCTCAACAGCGGTAAC [AC3 (C3)]”, the Kd in series [7] is 0.27 nM.

With “GCAGGACACCGTAACACGGGCTGATGCTCTCTTTATTTTACCTAAATAAAGTGTCCTGC [YFL-4 (Lac-A1), truncated 59-mer]”, the Kd in [8] was 0.953 nM.

As for “GCCGAUGGUUUUGUGGCCGUUUGAGGUUCCUACGGC [iR3]”, the Kd in series [9] is 36.6 nM; in series [10], 48 nM.

For “GCCUGAUGUGGUGGUGAAGGGUUGUUGGGUGUCGACGCACAGGC [NOX-D19]”, the Kd in series [11] is 1.39 nM; in series [12], 0.051 nM.

Consider “GCTGGACTCACCTCGACCAGAGCCATTGGGTTTCCTAGGAAATAGGGCCTTTACTATGAGCGAGCCTGGCG [LL4A]”, for which the Kd in series [13] is 84.6 nM.

Turning to “GGGAAUGGAUCCACAUCUACGAAUUCCCAACGACUGCCGAGCGAGAUUACGCUUGAGCGCCCCACUGAGGAUGCCCACGGGCGAUUGGGGCACGGCUUCACUGCAGACUUGACGAAGCUU [NELFapt (full length)]”, the Kd in series [14] is 5.2 nM.

As to “GGGACACAAUGGACGUAGAGAGAGAUUAGAUCCUGUCCGCGGCUAUAACGGCCGACAUGAGAG [m49f]”, the Kd in [15] was 10 nM.

Regarding “GGGAGAGCGGAAGCGUGCUGGGCCUGCUCUUUAAUAAACCCACUUUCGAACAUCAGCGUAUGUCCAUAACCCAGAGGUGAUGGAUCCCCC [PDR3]”, the Kd in [16] is 0.25 nM.

For “GGUUACCAGCCUUCACUGCGGACGGACAGAGAGUGCAACCUGCCGUGCCGCACCACGGUCGGUCACAC [H02-2'F]”, in series [17], the Kd was 72 nM.

In the case of “UGGUAAUUUGUCGUUUAUACGGGUCCUCGCAUCUUCCUA [TGF#2 (probable)]”, the Kd in series [18] is 10 nM.
